Reference: US20200255508A1
Where two headings read alike, the source gives them in different places.

Experiments:
[1] = target: cynomolgus monkey DLL4 extracellular domain (cynomolgus monkey); test: Biacore SPR
[2] = target: cyno DLL4-his (cynomolgus monkey); test: ELISA on DLL4-his
[3] = target: cynomolgus monkey DLL4 extracellular domain (cynomolgus monkey); test: capture ELISA
[4] = target: cynomolgus monkey DLL4 extracellular domain (cynomolgus monkey); test: competition ELISA, competitor huNotch-1
[5] = target: cynomolgus monkey DLL4 extracellular domain (cynomolgus monkey); test: Biacore SPR; remark: listed apart in the source
[6] = target: cyno DLL4-his (cynomolgus monkey); test: ELISA on DLL4-his; remark: listed apart in the source

| Binder | Kd [1] | EC50 [2] | EC50 [3] | IC50 [4] | Kd [5] | koff [5] | kon [5] | EC50 [6] |
| --- | --- | --- | --- | --- | --- | --- | --- | --- |
| E9-FR1 (antibody, V domains shown) VH: EVQLVQSGTEVKKPGESLKISCKVSGGSISSSSYYWGWIRQMPGKGLEWIGDIYYTGSTYYNPSLKSQVTISVDTSFNTFFLQWSSLKASDTAMYYCAREDVILRGGSDYWGQGTMVTVSS VL: EYVLTQSPATLSVSPGERATLSCSGQRLGDKYASWYQQKPGQSPRLVIYEDSKRPSDIPARFSGSNSGDEATLTISSLQSEDFAVYYCQAWDRDTGVFGQGTRLEIKR | 0.74 nM | 0.12 nM |  |  |  |  |  |  |
| E9-FR2 (antibody, V domains shown) VH: EVTLRESGPALVKPTQTLTLTCTVSGGSISSSSYYWGWIRQPPGKGLEWIGDIYYTGSTYYNPSLKSRVTISVDTSKNQFVLTMTNMDPVDTATYYCAREDVILRGGSDYWGQGTTVTVSS VL: DYVLTQSPDSLAVSLGERATINCSGQRLGDKYASWYQQKPGQSPKLVIYEDSKRPSGIPDRFSGSNSGDDATLTISSLQAEDVAVYYCQAWDRDTGVFGGGTKVEIKR | 0.3 nM | 0.12 nM |  |  |  |  |  |  |
| E9.1 (antibody, human IgG1, V domains shown) VH: EVQLQESGPGLVKPSETLSLTCTVSGGSISSSSYYWGWIRQPPGKGLEWIGDIYYTGSTYYNPSLKSRVTISVDTSKNQFSLKLSSVTAADTAVYYCAREDVILRGGSDYWGQGTLVTVSS VL: SYELTQPPSVSVSPGQTASITCSGQRLGDKYASWYQQKPGQSPVLVIYEDSKRPSGIPERFSGSNSGDTATLTISGTQPMDEADYYCQAWDRDTGVFGYGTRVTVLG | 0.47 nM | 0.035 nM |  |  | 4.08 nM |  |  | 0.24 nM |
| E9 (antibody, IgG1, V domains shown) VH: EVQLQESGPGLVKPSETLSLTCTVSGGSISSSSYYWGWIRQPPGKGLEWIGDIYYTGSTYYNPSLKSRVTISVDTSKNQFSLKLSSVTAADTAVYYCAREDVILRGGSDYWGQGTLVTVSS VL: SYELTQPPSVSVSPGQTASITCSGQRLGDKYASWYQQKPGQSPVLVIYEDSKRPSGIPERFSGSNSGDTATLTISGTQPMDEADYYCQAWDRDTGVFGYGTRVTVL |  |  | 0.4 nM | 2.1 nM | 4.2 nM | 7.4e-05 s⁻¹ | 18000 M⁻¹ s⁻¹ |  |
| E9.2B (antibody, V domains shown) VH: EVQLQESGPGLVKPSETLSLTCTVSGGSISSSNYYWGWIRQPPGKGLEWIGDINYNGNTYYNPSLKSRVTISVDTSKNQFSLKLSSVTAADTAVYYCAREAVALGGGADDWGQGTLVTVSS VL: SYELTQPPSVSVSPGQTASITCSGEGLGDKYVSWYQQKPGQSPVLVIYEDSTRPSGIPERFSGSNSGDTATLTISGTQPMDEADYYCQAWDSETGVFGSGTKVTVL |  |  | 0.45 nM | 2.2 nM |  |  |  |  |

The next lines start with the values.

| Kd [1] | EC50 [2] | EC50 [3] | IC50 [4] | Kd [5] | koff [5] | kon [5] | EC50 [6] | Binder |
| --- | --- | --- | --- | --- | --- | --- | --- | --- |
|  |  | 0.44 nM | 5.1 nM | 7.8 nM | 0.00015 s⁻¹ | 19000 M⁻¹ s⁻¹ |  | A10 (antibody, IgG1, V domains shown) VH: EVQLLESGGGLVKSGGSLRLSCAASGFTFRSHWMSWVRQAPGKGLEWVAIISYDGSNKYSADSVKGRFTISRDNSKNTLYLQLNSLRAEDTAVYYCAKAGGGNVGFDIWGQGTMVTVSS VL: LPVLTQPPSVSVSPGQTASITCSADKLGTKYVSWYQQKPGQSPVLVIYQDAKRPSGIPERFSGSNSGNTATLTISGTQTMDEADYLCQSWDRSDVVFGGGTKVTVL |
|  |  | 0.44 nM | 2 nM | 0.49 nM | 3.79e-05 s⁻¹ | 77500 M⁻¹ s⁻¹ |  | E9.71 (antibody, V domains shown) VH: EVQLQESGPGLVKPSETLSLTCTVSGGSISSSSYYWGWIRQPPGKGLEWIGDIYYTGSTYYNPSLKSRVTISVDTSKNQFSLKLSSVTAADTAVYYCARQALAMGGGSDKWGQGTLVTVSS VL: SYELTQPPSVSVSPGQTASITCSGQRLGDKYASWYQQKPGQSPVLVIYEDSKRPSGIPERFSGSNSGDTATLTISGTQPMDEADYYCQAWDRDTGVFGYGTKVTVL |
|  |  | 0.46 nM | 1.5 nM | 0.25 nM | 4.86e-05 s⁻¹ | 192000 M⁻¹ s⁻¹ |  | E9.19 (antibody, V domains shown) VH: EVQLQESGPGLVKPSETLSLTCTVSGGSISSSSYYWGWIRQPPGKGLEWIGDIYYTGSTYYNPSLKSRVTISVDTSKNQFSLKLSSVTAADTAVYYCARFDVSLGGGSDTWGQGTLVTVSS VL: SYELTQPPSVSVSPGQTASITCSGQRLGDKYASWYQQKPGQSPVLVIYEDSKRPSGIPERFSGSNSGDTATLTISGTQPMDEADYYCQAWDRDTGVFGYGTKVTVL |
